Starred links: 1 amine or outer side, 2 acyl side, 3 side chain; linkers in the order of their positions; H or OH if unused. Primed or numbered codes have the meaning given here. DPPE′ = dipalmitoylphosphatidylethanolamine; Glutaryl = O=C(CCCC(=O)[*:2])[*:1]
Experiments:
[1] = biological target: binding target for TKPPR on HAEC (human aortic endothelial cells); assay: static bubble binding to HAEC, manual count
[2] = biological target: binding target for TKPPR on HAEC (human aortic endothelial cells); assay: static bubble binding to HAEC, 5% composition
[3] = biological target: KB cells (human epidermoid carcinoma cell line); assay: static bubble binding to KB cells, 5% composition
[4] = biological target: binding target for TKPPR on HAEC (human aortic endothelial cells); assay: static bubble binding to HAEC, 1% D47, no competitor
[5] = biological target: binding target for TKPPR on HAEC (human aortic endothelial cells); assay: static bubble binding to HAEC, 5% D47, no competitor
[6] = biological target: binding target for TKPPR on HAEC (human aortic endothelial cells); assay: static bubble binding to HAEC, 2% D47, no competitor
[7] = biological target: binding target for TKPPR on HAEC (human aortic endothelial cells); assay: static bubble binding to HAEC, 10% D47, no competitor
[8] = biological target: binding target for TKPPR on HAEC (human aortic endothelial cells); assay: static bubble binding to HAEC, 5% composition, no competitor
[9] = biological target: binding target for TKPPR on RAEC (rabbit aortic endothelial cells); assay: static bubble binding to RAEC, 5% composition, no competitor
[10] = biological target: binding target for TKPPR on HAEC (human aortic endothelial cells); assay: static bubble binding to HAEC, 1% composition, no competition
[11] = biological target: binding target for TKPPR on HAEC (human aortic endothelial cells); assay: static bubble binding to HAEC, 5% composition, no competition
[12] = biological target: binding target for TKPPR on HAEC (human aortic endothelial cells); assay: static bubble binding to HAEC, 5% composition, untreated cells
[13] = biological target: binding target for TKPPR on HAEC (human aortic endothelial cells); assay: static bubble binding to HAEC treated 4 h with 1 ng/mL TNFα, 5% composition
[14] = biological target: binding target for TKPPR on HAEC (human aortic endothelial cells); assay: static bubble binding to HAEC treated 4 h with 5 ng/mL TNFα, 5% composition
[15] = biological target: binding target for TKPPR on HAEC (human aortic endothelial cells); assay: static bubble binding to HAEC treated 4 h with 10 ng/mL TNFα, 5% composition
[16] = biological target: binding target for TKPPR on HAEC (human aortic endothelial cells); assay: static bubble binding to HAEC, 5% composition, no competitor (same control as Table 13)

- % more bubbles bound than with the 1% composition [1]: 31%
- Bubbles Bound [2]: 7050 bubbles
- bubble binding [2]: 1120 bubbles
- bubble binding [3]: 56 bubbles
- Bubbles Bound [4]: 737 bubbles
- Bubbles Bound- 1% [4]: 1640 bubbles
- Bubbles Bound- 5% [5]: 2780 bubbles
- Bubbles Bound [6]: 953 bubbles
- Bubbles Bound % [6]: 100 % of control
- Bubbles Bound- 10% [7]: 1860 bubbles
- Bubbles Bound [8]: 1250 bubbles
- HAEC bubbles bound [8]: 1420 bubbles
- RAEC bubbles bound [9]: 751 bubbles
- Bubbles Bound [10]: 555 bubbles
- Bubbles Bound [11]: 726 bubbles
- TKPPR-Bubbles bound [12]: 950 bubbles
- TKPPR-Bubbles bound [13]: 1520 bubbles
- TKPPR-Bubbles bound [14]: 1360 bubbles
- TKPPR-Bubbles bound [15]: 1020 bubbles
- Bubbles Bound [16]: 1250 bubbles
Binder: {DPPE′-Glutaryl}-GTKPPR-OH (also: held in phospholipid shell of microbubbles) [gas-filled microbubbles containing DPPE-Glu-GTKPPR (D47), composition I of Example 5]
